The chains are these.
B1: 194C10 (antibody, V domains shown)
VH: QVQLQQWGAGLLKPSETLSLTCAVSGGSFRYYYWSWIRQPPGKGLEWFGEINHSGSTNYNPSLKSRVTISIDTSKNQFSLKLRSVTAADTAVYYCARDYGAFDIWGQGTMVTVSS
VL: EIVLTQSPGTLSLSPGERATLSCRASPSVNSGYLAWYQQKPGQTPRLLIFGASSRATGIPDRFSASGSGADFTLTISRLEPEDFAVYFCQQYESSPWTFGQGTKVEIK
B2: 22G5 (antibody, V domains shown)
VH: EVQLLESGGGLVQPGGSLRLSCAASGFTFSSYAMNWVRQAPGMGLEWVSVISRSGGYTYYADSVKGRFTISRDNSKNTLYLQMNSLRAEDTAVYYCASRLAVAGSEAFDIWGQGTLVTVSS
VL: DIQMTQSPSSLSASVGDRVTITCRASQNISSYLNWYQQKQGKAPKLLIYAASSLQNGVPSRFSGRGSGTDFTLTISSLQPEDFATYYCQQSYRTPLFTFGPGTKVDFK
B3: 4A2 (antibody, V domains shown)
VH: QVQLVQSGTEVKKPGASVKVSCKASGYTFTNYDINWVRQATGQGLEWMGWMHPNSGNTGYAQKFQGRVTLTRDTSISTAYMELSSLRSEDTAVYYCASSSGWYYFDYWGQGTLVTVSS
VL: DIVMTQSPDSLAVSLGERATINCKSSQSILHSSNNNNYLAWFQQKPGQPPKLLLYWASTRESGVPDRFSGSGSGTDFTLTISSLQPEDVAVYYCQQYYNTPVTFGPGTKVGIK
B4: 5E5 (antibody, V domains shown)
VH: QVQLVESGGGVVQPGRSLRLSCAASGFTFSNYVMHWVRQAPGKGLEWVAVIWYDGSNKYYADSVKGRFTISRDNSKNTLYLQMNSLRAEDTAVYYCTREVYSSGWYDYGMDVWGQGTTVTVSS
VL: DIQMTQSPSSLSASVGDRVTITCRASQGIRNDLGWYQQKPGKAPKRLIYAASSLQSGVPSRFSGSGSGTEFTLTISSLQPEDFATYYCLQHYSYPRTFGQGTKVEVK
B5: 176H4 (antibody, V domains shown)
VH: QVQLVESGGGVVQPGRSLRLSCAASGFTFSSYGMHWVRQAPGKGLEWVAIIWYDGSYKYYADSVKGRFTISRDNSKNTLYLQMSSLRAEDTAVYYCARDAHDFWSGYFAYWGQGALVTVSS
VL: DIVMTQTPLSLSVTPGQPASISCKSSQSLLHGDGKTYLYWYLQKPGQPPQLLIYEVSNRFSGVPDRFSGSGSGTDFTLKISRVEAEDVGIYYCMQSIQIPWTFGQGTRVEIK

5 molecules from patent publication EP4435105 can be followed below.

By IC50 is commonly meant the concentration at which inhibition is half-maximal. The low end stands for inhibition by little substance, the high end for a need for much substance.

The first assay addresses T1, human ASGR-1 (on CHO-S cells) (human, UniProt P07306).
T1 chain: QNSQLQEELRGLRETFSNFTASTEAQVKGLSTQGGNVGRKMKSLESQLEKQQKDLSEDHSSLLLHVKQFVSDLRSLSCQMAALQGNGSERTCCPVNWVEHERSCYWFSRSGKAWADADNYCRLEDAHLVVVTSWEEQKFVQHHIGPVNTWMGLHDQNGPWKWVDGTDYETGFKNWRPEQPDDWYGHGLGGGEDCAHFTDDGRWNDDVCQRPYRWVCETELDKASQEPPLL
The experiment in a line: competition, FACS, GalNAc-PAA.
Regarding B1, the IC50 worked out at 87 nM. This lies in the double-digit nanomolar range.

B2 had an IC50 of 11 nM.

With B3, the IC50 was 54 nM.

B4: the half-inhibitory concentration (IC50) was more than 200 nM.

As for B5, the IC50 is 73 nM.

A further assay deals with T1, human ASGR-1 (on CHO-S cells). The experiment in a line: competition, FACS, asialofetuin.
Regarding B1, the IC50 amounted to 30 nM.

Take B2: the half-inhibitory concentration (IC50) stood at 3.4 nM.

Turning to B3, the IC50 was determined as 11 nM.

Consider B4, for which the IC50 is 16 nM.

Molecule B5 gave an IC50 of 59 nM.
